From patent US20260097113A1 (Pfizer, published 2026)

Columns and labels:
[1] = target: RSV A + RSV B bivalent composition (RSV subtype A; RSV subtype B); experiment: AM14 prefusion assay relative to standard; RSV A + RSV B 240 µg/mL each, 2% sucrose + 4% mannitol; post-lyo T0
[2] = target: RSV A + RSV B bivalent composition (RSV subtype A; RSV subtype B); experiment: AM14 prefusion assay relative to standard; RSV A + RSV B 240 µg/mL each, 2% sucrose + 4% mannitol; post-lyo 2 months at 5°C

Sequence of AM14 (trimeric prefusion specific antibody of the AM14 ELISA) (VH): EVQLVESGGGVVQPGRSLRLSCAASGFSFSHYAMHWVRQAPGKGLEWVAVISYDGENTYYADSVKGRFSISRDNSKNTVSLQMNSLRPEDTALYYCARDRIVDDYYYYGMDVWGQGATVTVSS
Sequence of AM14 (trimeric prefusion specific antibody of the AM14 ELISA) (VL): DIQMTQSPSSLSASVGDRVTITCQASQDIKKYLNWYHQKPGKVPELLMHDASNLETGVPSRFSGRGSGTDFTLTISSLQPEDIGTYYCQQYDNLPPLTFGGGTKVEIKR

## AM14 (trimeric prefusion specific antibody of the AM14 ELISA)
[1]
  AM14 Prefusion Content (%), relative to standard: 81%
[2]
  AM14 Prefusion Content (%), relative to standard: 116%
